Experimental data as given in the DeepSol protein solubility set.

Test: soluble on expression in E. coli; label from the status in PepcDB or PDB records
For “MTFQVILCYETVRQVAGLESELKANGFGQAQVLPNGTVPNRGSIVDLTNAISKLGVLRATAAGLAGTISRGGAVAIVPAHFGAGGKATEIMKKYNPIVDRPAAKPSAWDDAAPFSSLLRLPVITKSQPFKGHSGTPLIIEQEGAYRSNSGEPLVIKQTGGYRSMSGTPLLLDGGPYKSFSGTPLLIEQKDAYSSFSGTPLLVDSNTLFLTRA”, the “soluble on expression in E. coli” value was “not soluble”.
With “MTGFSISMDLAPKQSRSDRSTHEGTVEQRLKFFMQDVTGRALVMMESATQGQHGIAMDLVQEAFIALHKSYADKATDEWYPLFYTILNNKLQDWRRKEARRSNPFSFFKKVSLDSDEEVTDVVDETTPNPFEFLDQAVTIEEIQAAIAQLPVRQQQAFMLRAWEGFDTQTTAQIMNCSEGSVKTHYHRAIQGLRASLAHLNPSLGGSSDESR” the “soluble on expression in E. coli” value was “not soluble”.
With “MTGIYYLYLRQDDPKKATMRKLERFGLAKRVDIKGVGLKLVLTPYADIFLSREDAVLYEKYGLCVIEGSWNKIDSIKSLKFRIERRLPALLAANPVNYGKIGILSSVEATAAALYIIGYWDTAYALLSKFSWGLNFIKLNENPLNEYSTADRSEIKKIEESYFGLEHHHHHH” the “soluble on expression in E. coli” value was “soluble”.
In the case of “MTGQRDGASLHDALTDKQAAVLRAAFHAGYFEWPRESTAEDLAADMGVTAPTLHNHLRRAQQKLLEHHHHHH”, the “soluble on expression in E. coli” value is reported as “not soluble”.
For “MTGRTGGNGSTQAQPERVMLVGVMLDKDGTGSSAARLNGFQTALAEAVELVKAAGGDSVRVETAKRDRPHTALFVGTGKAAELSEAVAADGIDLVVFNHELTPTQERNLEKELKCRVLDRVGLILAIFARRARTQEGRLQVELAQLSHLAGRLIRGYGHLQSQRGGIGMKGPGETKLETDRRLIAHRINALKKQLANLKKQRALRRKSRESGTIKTFALVGYTNVGKSSLFNRLTKSGIYAKDQLFATLDTTARRLYISPECSIILTDTVGFVSDLPHKLISAFSATLEETAQADVLLHVVDAAAPNSGQQIEDVENVLQEIHAGDIPCIKVYNKTDLLPSEEQNTGIWRDAAGKIAAVRISVAENTGIDALREAIAESCAAAPLEHHHHHH”, the “soluble on expression in E. coli” value was “not soluble”.
With “MTGSTAGKVLVVGALGVVGRAALEHFGQRPGLARVGLSRRAPDFAPEATWISADLRDAQATRAALAAHGDATHVVYAALNEQPDLLKGWRDSGNVDLNTRMLRNTLDALREAPLRHVTLLQGTKAYGVHTGRPMPVPARETDAVRDHANFYFDQQDLLAERAAAQGFAWTIFRPQIVLGVALGSAMNPVATLGAYAALSREAGQPLRYPGHPHLLTECTDARLIARAIAWAWDEPRAHGEAFNIANGDVVLWQPVFERLAALFGMPLGEPVDTRMREAMPEQAERWRAIAERERLAVPQLRDLIGLSWQYADATWAARHPLPVPPLVSTIKLRQAGFGDCIDTQECIVEHLREMQRLRYLPRLEHHHHHH” the “soluble on expression in E. coli” value was “not soluble”.
For “MTGSTETRQKEVKEPQVDVSDDSDNEAVEQELTEEQRRVAEAAGLGDHIDKQAKQSRSEKKARKLFSKLGLKQVTGVSRVCIRKSKNILFVINKPDVFKSPGSDTYIIFGEAKIEDLTQHAQMSAIENLKPTREAPQLKTVEEDENEDVEEDSTGIEEKDIELVISQANTTRNKAIRALKEADNDIVNAIMSLTM”, the “soluble on expression in E. coli” value was “soluble”.
With “MTGVYADAVLVSVTVGDTVTLHTAGVKNLQPADVKWYFNDIRIAQLDGDLRFNCTDIQCNDRTEIFIDRLRLDRKTGALTIVNITNTHSGVYQLVVIGGGGTIFNVTVHDDPATHYNQVKKNQGESVTFNPGVRRDLIVVLKCLLNNTLIAEISVNQSQICADVQCKERFTDRLKLDNESASLTITNTNITDSGNYTSVILISSDRRFSITREKRFSLTVTSLSSSQPSGGAIAGIVVMLLLLL” the “soluble on expression in E. coli” value was “not soluble”.
For “MTHDNKLQVEAIKRGTVIDAIPAQIGFKLLSLFKLTETDQRITIGLNLPSGEMGRKDLIKIENTFLSEDQVDQLALYAPQATVNRIDNYEVVGKSRPSLPERIDNVLVCPNSNCISHAEPVSSSFAVRKRANDIALKCKYCEKEFSHNVVLAN”, the “soluble on expression in E. coli” value was “soluble”.
In the case of “MTHPLYIFDLDETLINGDCAMIWNEFLVDKGIVTTPDFLEEDKRLMTLYSRGLMDMEDYLIFAMSPLKNIPTDQVEILIEECVNERILPLLFPEAKILIHQLKADNVDMIVISASVSFLVKIVAKNIGIKHAIGIDLKEKNGCYTRHILGVPSYREGKVSRLTEWLNGGDKTYSALHFYTDSINDLPLCLYADHTYLVNPCEQLAVYSKKKNWPILAWGSQ”, the “soluble on expression in E. coli” value is reported as “not soluble”.
For “MTHTVHLHLEETDNLALQRLCGSFDNNLDLLAKALDIHISRRFEHFTFNGAFAHAGKRALLKLLETAQTRDLNDGDIRLAAVEAQTEDAGHQEKNHDHAYYFRTKRGSIGGRTPRQNGYIRALLNHDIVFGLGPAGTGKTYLAVAAAVDAMEKHQVERIILVRPAVEAGEKLGFLPGDLTQKVDPYLRPLYDALYDLMGFDRVTKLIEKGLIEIAPLAYMRGRTLNGAYIILDEAQNTTPEQMKMFLTRIGFGAKAVITGDTSQIDLPKNIKSGLKDAREKLHNVEGLYFHTFTGEDVVRHPLVQKIVEAYESAEHD”, the “soluble on expression in E. coli” value was “not soluble”.
With “MTIATSVAGSSENFAELFNESLSHKEMRVGEVITAEIIRVDYNFVVVNAGLKSESYIPIEEFKNDRGEIEAREGDFVSVAIEALENGFGETRLSRDKAKRLNAWYELEEAMEKGKIVTGMVNGKVKGGLTATINGIRAFLPGSLVDIRPVKDMTPYENKEMEFKVIKLDRKRNNVVVSRRAVLEETQGADRDELLASLQDGAVVQGIVKNITDYGAFVDLGGIDGLLHITDLAWRRVKHPTEVINVGDEVTAKVLKFDQEKNRVSLGLKQLTEDPWIGLSRRYPQGTRIFGKVTNMTDYGAFVEIEQGIEGLVHVSEMDWTNKNVYPSKIVQLGDEVEVMILEIDEDRRRISLGMKQCRPNPWEEFSLSHEKGDKVTGQIKSITDFGLFIGLPGNIDGLVHLSDLSWNQPGEKAISEFKKGDEVEAVVLSIDVEKERISLGIKQLEGDPFNIYVASHDKNSIVKGTVKSVDAKGAVIALTDEVEGYLRASEFSRDKIEDIRSRVNEGDEIEAMIINIDRKNRSISLSVKARIQDEEDKAVKSLASVSNPASAGTTNLGALLKAKIDSKSSEELEHHHHHH” the “soluble on expression in E. coli” value was “soluble”.
With “MTIDRVCTIGPASNNKETLAKLINNGMKIVRLNLSHGTHESHKDIIRLVKSLDDSIKILGDVQGPKIRLGEIKGEQITLQAGDSFMLRTQPVTGSSTEASVDYEGIANDVKVGSRILMNDGEVELIVEKVSTDKIETKVKTGGNISSHKGVNLPGAIVSLPAITEKDKKDIQFLLEEDVDFIACSFVRKPSHIKEIRDFIQQYKETSPNLIAKIETMEAIENFQDICKEADGIMIARGDLGVELPYQFIPLLQKMMIQECNRTNTYVITATQMLQSMVDHSIPTRAEVTDVFQAVLDGTNAVMLSAESASGEHPVESVSTLRLVSEFAEHVKKDGPFVMKDVLELLHKSLDE” the “soluble on expression in E. coli” value was “soluble”.
With “MTIEKPKISVAFIALGNFCRSPMAEAIFKHEVEKANLENRFNKIDSFGTSNYHVGESPDHRTVSICKQHGVKINHKGKQIKTKHFDEYDYIIGMDESNINNLKKIQPEGSKAKVCLFGDWNTNDGTVQTIIEDPWYGDIQDFEYNFKQITYFSKQFLKKEL” the “soluble on expression in E. coli” value was “soluble”.
With “MTIKLINIGFGNIISANRMISIVSPESAPIKRMIQDARDRGMLIDATYGRRTRAVVVMDSDHIILSAVQPETVAHRLSVKEEIMDEGQG” the “soluble on expression in E. coli” value was “not soluble”.
With “MTIPLWWQNGVIYQIYPKSFQDTTGSGTGDLRGVTQRLDYLQRLGVDAIWLTPFYISPQVDNGYDVANYTAIDPTYGTLDDFDELVAQAKARGIRIILDMVFNHTSTQHAWFREALNKESPYRQFYIWRDGTPDVCPNNWQSKFGGSAWRWHSQSEQYYLHLFAPEQADLNWENPAVRAELKKVCEFWADRGVDGLRLDVVNLIAKDQNFPDDPTGDGRRFYTDGPRAHTFLREMNRDVFTPRNLMTVGEMSSTTLENCQQYAALSGDELSMTFNFHHLKVDYPNGEKWTLAKPDYVALKALFRHWQQGMHNVAWNALFWCNHDQPRIVSRFGDEGEYRVPAAKMLAMALHGMQGTPYIYQGEEIGMTNPHFTRITDYRDVESHNMFAALRAAGRDPDELLAILASKSRDNSRTPMQWDNGKNAGFTQGEPWISLCDNYTEVNVEAALRDENSVFYTYQKLIALRKTQPVLIWGDYQDLLPDSPSVWCYRRQWQGQILLVVANLSNQCQEWHPPHIKGQWQALLHNYGEVASQPAAMTLRPFEAIWWLQR” the “soluble on expression in E. coli” value was “not soluble”.
In the case of “MTIQQSVTHQLLIPITFEGKEHTTITLQRPKTKDLQAIDKKEGVEQTIAMIARLSGWPHEAISELDINDLSSIGEILESFIKRRDTSTGKPPQN”, the “soluble on expression in E. coli” value is reported as “soluble”.
